According to patent US20150158934A1:

B1: L93E3 (VHH)
VHH: EVQLVESGGGLVQPGGSLRLSCAASQFTLESYAIGWFRQAPGKDSEGVACISSSTYYADSVKGRFTISRDNAKNTVYLQMESLKPEDTAVYHCATSGAGSYCTLRAFGSWGQGTQVTVSS
B2: L8Cj3 Mutant 2 (VHH)
VHH: EVQLVESGGGLVQAGGFLRLSCELRGSIFSQYAMAWFRQAPGKEREFVAGMGAVPHYGEFVKGRFTISRDNAKSTVYLQMSSLKPEDTAIYFCARSKSTYISYNSNGYDYWGRGTQVTVSS
B3: L8Cj3 Mutant 5 (VHH)
VHH: EVQLVESGGGLVQAGGFLRLSCELRGSIFNQYAMAWFRQAPGKEREFVAGMGAVPHYGEFVKGRFTISRDNAKSTVYLQMSSLKPEDTAVYFCARSKSTYISYNSNGYDYWGRGTQVTVSS
B4: L8Cj3 Mutant 6 (VHH)
VHH: EVQLVESGGGLVQAGGFLRLSCELRGSIFNQYAMAWFRQAPGKEREFVAGMGAVPHYGEFVKGRFTISRDNAKSTVYLQMSSLKPEDTAIYYCARSKSTYISYNSNGYDYWGRGTQVTVSS
B5: L8i5 (VHH)
VHH: EVQLVESGGGLVQAGGFLRLSCEPRGSIFNQYAMAWFRQAPGKEREFVAGMGAVAHYGEFVKGRFTISRDNAKNTAYLQMNSLKPEDTAIYFCARSKSTYISYNSNGYDYWGRGTQVTVSS
B6: L8Cj3 Mutant 4 (VHH)
VHH: EVQLVESGGGLVQAGGFLRLSCELRGSIFNQYAMAWFRQAPGKEREFVAGMGAVPHYADSVKGRFTISRDNAKSTVYLQMSSLKPEDTAIYFCARSKSTYISYNSNGYDYWGRGTQVTVSS
B7: L8Cj3 Mutant 1 (VHH)
VHH: EVQLVESGGGLVQAGGFLRLSCAASGSIFNQYAMAWFRQAPGKEREFVAGMGAVPHYGEFVKGRFTISRDNAKSTVYLQMSSLKPEDTAIYFCARSKSTYISYNSNGYDYWGRGTQVTVSS
B8: L8Cj3 Mutant 9 (VHH)
VHH: EVQLVESGGGLVQAGGFLRLSCELRGSIFNQYAMAWFRQAPGKEREFVAGMGAVPHYGEFVKGRFTISRDNAKSTVYLQMSSLKPEDTAIYFCARSKSTYISYASNGYDYWGRGTQVTVSS
B9: L8Cj3 Mutant 8 (VHH)
VHH: EVQLVESGGGLVQAGGFLRLSCELRGSIFNQYAMAWFRQAPGKEREFVAGMGAVPHYGEFVKGRFTISRDNAKSTVYLQMSSLKPEDTAIYFCARSKNTYISYNSNGYDYWGRGTQVTVSS
B10: L8Cj3 Mutant 10 (VHH)
VHH: EVQLVESGGGLVQAGGFLRLSCELRGSIFNQYAMAWFRQAPGKEREFVAGMGAVPHYGEFVKGRFTISRDNAKSTVYLQMSSLKPEDTAIYFCARSKSTYISYNSNEYDYWGRGTQVTVSS
B11: L8Cj3 Mutant 7 (VHH)
VHH: EVQLVESGGGLVQAGGFLRLSCELRGSIFNQYAMAWFRQAPGKEREFVAGMGAVPHYGEFVKGRFTISRDNAKSTVYLQMSSLKPEDTAIYFCAASKSTYISYNSNGYDYWGRGTQVTVSS
B12: L8Cj3 Mutant 12 (VHH)
VHH: EVQLVESGGGLVQAGGFLRLSCIYRGSIFNQYAMAWFRQAPGKEREFVAGMGAVPHYGEFVKGRFTISRDNAKSTVYLQMSSLKPEDTAIYFCARSKSTYISYNSNGYDYWGRGTQVTVSS
B13: L8Cj3 Mutant 11 (VHH)
VHH: EVQLVESGGGLVQAGGFLRLSCELRGSIFNQYAMAWFRQAPGKEREFVAGMGAVPHYGEFVKGRFTISRDNAKSTVYLQMSSLKPEDTAIYFCARSKSTYISYNSNGYDYWGQGTQVTVSS
B14: L8Cj3 Mutant 13 (VHH)
VHH: EVQLVESGGGLVQAGGFLRLSCELRGRTFNQYAMAWFRQAPGKEREFVAGMGAVPHYGEFVKGRFTISRDNAKSTVYLQMSSLKPEDTAIYFCARSKSTYISYNSNGYDYWGRGTQVTVSS
B15: L1719E1 (VHH)
VHH: EVQLVESGGGLVRHGDSLRLSCLVSGRTTSVYATGWFRQAPGKEREFVAAISWSGGYTNYADSVKGRFTISRDNAKNTVFLQMNSLKPEDTAVYYCAADRNPYRGSNNANAYDYWGQGTQVTVSS
B16: 3E3mod-long-CDR2 (VHH)
VHH: QVQLQESGGGLVQAGGSLRLSCAASQFTLESYAIGWFRQAPGKDSEGVACISSSDGSTYYADSVKGRFTISRDNAKNTVYLQMNSLKPEDTAVYHCATSGAGSYCTLRAFGSWGQGTQVTVSS
B17: L81H9 (VHH)
VHH: EVQLVESGGGLVQAGGSLRLSCVCSGFSSDEYAIGWFRQAPGKEREGVSYISREDGSRHYADSVKGRFTISTDYARNTVYLQMDSLKPEDTGVYYCAAALLGDYVLWLPEYPYNYWGQGTQVTVSS
B18: J3_CDR2_fill_2 (site directed mutagenesis) (VHH)
VHH: EVQLVESGGGLVQAGGFLRLSCELRGSIFNQYAMAWFRQAPGKEREFVAGMSWGAVPHYGEFVKGRFTISRDNAKSTVYLQMSSLKPEDTAIYFCARSKSTYISYNSNGYDYWGRGTQVTVSS
B19: J3_CDR2_fill_1 (site directed mutagenesis) (VHH)
VHH: EVQLVESGGGLVQAGGFLRLSCELRGSIFNQYAMAWFRQAPGKEREFVAGMSGAVPHYGEFVKGRFTISRDNAKSTVYLQMSSLKPEDTAIYFCARSKSTYISYNSNGYDYWGRGTQVTVSS

What was measured:
[1] = biological target: gp120Yu-2 109-428 (HIV-1); test: competition ELISA on coated gp120Yu-2 109-428; periplasmic VHH first, then competitor sCD4 detected
[2] = biological target: gp140CN54 (subtype B'/C), gp140 envelope glycoprotein from the HIV-1 group M CRF07-B/C-clade isolate 97CN54 (HIV-1); test: binding of purified VHH to gp140 CN54 (method not given)
[3] = biological target: gp140UG37 (subtype A), gp140 envelope glycoprotein from the HIV-1 group M A-clade isolate 92UG037 (HIV-1); test: binding of purified VHH to gp140 92UG (method not given)
[4] = biological target: gp120Yu-2 109-428 (HIV-1); test: competition ELISA on coated gp120Yu-2 109-428; periplasmic VHH first, then competitor 17b detected
[5] = biological target: gp140UG37 (subtype A), gp140 envelope glycoprotein from the HIV-1 group M A-clade isolate 92UG037 (HIV-1); test: binding of VHH to gp140 92UG (method not given)
[6] = biological target: gp120Yu-2 109-428 (HIV-1); test: competition ELISA on coated gp120Yu-2 109-428; periplasmic VHH first, then competitor b12 detected
[7] = biological target: gp140CN54 (subtype B'/C), gp140 envelope glycoprotein from the HIV-1 group M CRF07-B/C-clade isolate 97CN54 (HIV-1); test: binding of VHH to gp140 CN54 (method not given)

Binder | K50 (50% binding concentration; column head reads KD) [2] | K50 (50% binding concentration; column head reads KD) [3] | other results
B1 | – | – | signal as percent of the signal of the control [1]: < 30%
B2 | 0.18 µg/mL | 0.04 µg/mL | –
B3 | 1.07 µg/mL | 0.028 µg/mL | –
B4 | 0.25 µg/mL | 0.024 µg/mL | –
B5 | 8.54 µg/mL | 0.048 µg/mL | –
B6 | 1.84 µg/mL | 0.025 µg/mL | –
B7 | 67.8 µg/mL | 0.058 µg/mL | –
B8 | 0.14 µg/mL | 0.022 µg/mL | –
B9 | 0.36 µg/mL | 0.02 µg/mL | –
B10 | 12.1 µg/mL | 0.086 µg/mL | –
B11 | > 100 µg/mL | 0.95 µg/mL | –
B12 | > 100 µg/mL | 0.042 µg/mL | –
B13 | 9.26 µg/mL | 0.019 µg/mL | –
B14 | > 100 µg/mL | 0.027 µg/mL | –
B15 | – | – | signal as percent of the signal of the control [4]: < 30%
B16 | – | – | K50 (50% binding concentration) [5]: > 10 µg/mL
B17 | – | – | signal as percent of the signal of the control [6]: < 30%
B18 | – | – | K50 (50% binding concentration) [5]: > 10 µg/mL; K50 (50% binding concentration) [7]: > 100 µg/mL
B19 | – | – | K50 (50% binding concentration) [5]: > 10 µg/mL; K50 (50% binding concentration) [7]: > 100 µg/mL
